For 3 substances, EC50 and % of VEGF alone results are on record in US20020119153A1.

In test [1] the target is VEGF:sFlk-1 complex (human; mouse) (UniProt P15692). Nature of the test: capture ELISA: biotinylated sFlk-1 complexed with VEGF titrated onto wells coated with the antibody; concentration giving 50% maximal binding; extrapolated value.
Test [2] deals with recombinant human VEGF165 (human) (UniProt P15692). Nature of the test: blocking ELISA, negative control: 1 nM VEGF bound to wells coated with VEGFR1 (Flt-1/Fc) with 100 nM control IgG of irrelevant specificity (100x) present; bound VEGF detected with rabbit anti-VEGF A-20; the number measures VEGF:VEGFR1 binding, not binding of the control IgG to VEGF. In general terms: In an ELISA, binding on a coated surface is turned into a signal by an enzyme label.
recombinant human VEGF165 (human), sequence (P15692 other isoform, or with tags, fused parts or gaps): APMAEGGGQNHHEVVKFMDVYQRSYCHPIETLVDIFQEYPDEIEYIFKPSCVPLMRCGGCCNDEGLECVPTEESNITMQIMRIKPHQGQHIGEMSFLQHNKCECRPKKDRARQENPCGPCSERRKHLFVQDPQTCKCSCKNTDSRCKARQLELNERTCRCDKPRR

Test [3] shares this target. Nature of the test: blocking ELISA, negative control: 1 nM VEGF bound to wells coated with VEGFR1 (Flt-1/Fc) with 1000 nM control IgG of irrelevant specificity (1000x) present; bound VEGF detected with rabbit anti-VEGF A-20; the number measures VEGF:VEGFR1 binding, not binding of the control IgG to VEGF.
Test [4] shares this target. Put plainly: blocking ELISA, negative control: 1 nM VEGF bound to wells coated with VEGFR2 (sFlk-1) with 1000 nM control IgG of irrelevant specificity (1000x) present; bound VEGF detected with rabbit anti-VEGF A-20; the number measures VEGF:VEGFR2 binding, not binding of the control IgG to VEGF.
Test [5] shares this target. Put plainly: blocking ELISA, negative control: 1 nM VEGF bound to wells coated with VEGFR2 (sFlk-1) with 100 nM control IgG of irrelevant specificity (100x) present; bound VEGF detected with rabbit anti-VEGF A-20; the number measures VEGF:VEGFR2 binding, not binding of the control IgG to VEGF.

VEGF:sFlk-1 complex (human; mouse), sequence (P15692 other isoform, or with tags, fused parts or gaps limits assumed, chain 1 of 2): as the sequence (P15692 other isoform, or with tags, fused parts or gaps) above
VEGF:sFlk-1 complex (human; mouse), sequence (P35918 20-762 limits assumed, chain 2 of 2, further chain): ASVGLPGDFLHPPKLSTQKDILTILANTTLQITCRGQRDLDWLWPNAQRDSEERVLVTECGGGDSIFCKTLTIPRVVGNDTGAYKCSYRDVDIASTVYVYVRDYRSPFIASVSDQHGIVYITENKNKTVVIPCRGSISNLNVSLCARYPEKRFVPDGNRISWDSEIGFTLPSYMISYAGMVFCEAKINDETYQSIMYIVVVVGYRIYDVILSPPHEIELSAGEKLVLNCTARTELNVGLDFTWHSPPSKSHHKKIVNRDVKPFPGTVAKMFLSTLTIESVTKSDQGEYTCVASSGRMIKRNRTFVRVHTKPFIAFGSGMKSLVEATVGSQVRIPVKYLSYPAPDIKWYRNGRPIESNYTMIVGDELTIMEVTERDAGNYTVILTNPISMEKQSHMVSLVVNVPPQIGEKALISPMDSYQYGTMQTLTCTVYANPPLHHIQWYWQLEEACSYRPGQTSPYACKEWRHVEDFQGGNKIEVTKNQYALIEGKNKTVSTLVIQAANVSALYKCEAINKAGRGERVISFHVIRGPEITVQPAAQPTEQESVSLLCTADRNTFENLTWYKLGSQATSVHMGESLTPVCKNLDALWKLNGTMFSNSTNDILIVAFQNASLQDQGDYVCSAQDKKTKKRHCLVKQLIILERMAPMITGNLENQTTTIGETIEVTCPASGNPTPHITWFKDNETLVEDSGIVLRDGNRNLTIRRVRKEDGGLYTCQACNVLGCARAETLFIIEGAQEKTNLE

As usually defined, the EC50 is the concentration giving half of the maximal effect. Regarding “A4.6.1, mouse anti-human VEGF monoclonal antibody (Genentech)”, the concentration giving a half-maximal response (EC50) in test [1] is 0.5 µM.
For “control IgG of irrelevant specificity (antibody)”, the % of VEGF alone in test [2] was found to be 98%; in test [3], 92%; in test [4] it was 93%; in test [5], 96%.
Consider “irrelevant IgM (negative control) (antibody)”, for which the EC50 in test [1] is 0.6 µM.
